Measured values: patent publication US20210259954A1, “CILIA-TARGETING NANOPARTICLES” (Chapman University, priority 2019, published 2021)
Each block holds one compound with its values, some of them ahead of it.

Experiments:
p-ERK = assay: Immunoblotting of phosphorylated ERK; format: cell-based; details: PKG inhibition
Experimental: Immunoblotting. […] Samples were kept on ice during sonication to prevent overheating. Samples were then centrifuged at 15,000 rpm for 20 min, and the supernatants were collected and subjected to protein quantification. The PAGE (polyacrylamide gel electrophoresis) on 6-10% SDS gels was performed followed by semi-dry transfer to PVDF membranes using a Bio-Rad Trans-Blot Turbo Transfer System and detection using antibodies against t-ERK (1:1,000), p-ERK (1:1,000), NOS (1:200), and GAPDH (1:2,000) (Cell Signaling Technology). Blots were scanned with both calorimetry to image molecular markers and chemiluminescence to capture the protein signal intensity using a Bio-Rad imager.

[1] = target: Dopamine-receptor type-5 (DR-5) on primary cilia of cultured cells; assay: fluorescence intensity in non-permeabilized live cells
[2] = target: Dopamine-receptor type-5 (DR-5) on primary cilia of cultured cells; assay: live single-cell-single-cilium fluorescence intensity per area
[3] = target: Dopamine-receptor type-5 (DR-5) on primary cilia of cultured cells; assay: live single-cell fluorescence imaging of perfused fluorescent nanoparticles on the cilium

Compound: Nc1nc2c(nc(Sc3ccc(Cl)cc3)n2C2OC3COP(O)(=S)OC3C2O)c(=O)[nH]1 (centres unmarked) [Rp-8pCPT-cGMP]
flow-induced effect of NPs on ERK phosphorylation (p-ERK): reduced the flow-induced effect of NPs on ERK phosphorylation

ratio of cilia-to-cell body specificity [1]: 158
proportion of specific binding cilium:cell:background (relative to background = 1) [2]: 17000
Compound: CT-Fe2O3-NPs (antibody- and fenoldopam-loaded Sunbright-40-OA-Fe2O3-NPs)

binding kinetics to cilia [3]: 0.21 min⁻¹
Compound: CT-DAu-NPs (cilia-targeted dopaminergized gold nanoparticles carrying DR-5-AF594 antibody and fenoldopam)

binding kinetics to cilia [3]: 0.26 min⁻¹
Compound: CT-PLGA-NPs (cilia-targeted PLGA nanoparticles carrying DR-5-AF594 antibody and fenoldopam)
